From US20240336672A1

Key:
Conditions in all cases: remark: other sources report otherwise
[1] = molecular target: T1, SARS-CoV-2 Spike ectodomain (tri-S), Wuhan (SARS-CoV-2), P0DTC2; assay: competition ELISA, biotinylated tri-S to immobilized ACE2 ectodomain
[2] = molecular target: SARS-CoV-2 RBD (P.1) domain (SARS-CoV-2); assay: ELISA; design: unit not given beside the values
[3] = molecular target: SARS-CoV-2 RBD (B.1.1.7) domain (SARS-CoV-2); assay: ELISA; design: unit not given beside the values
[4] = molecular target: T1, SARS-CoV-2 Spike ectodomain (tri-S), …; assay: SPR (Biacore), antibody coupled to CM5 chip, viral protein as analyte
[5] = molecular target: T1, SARS-CoV-2 Spike ectodomain (tri-S), …; assay: competition ELISA vs bio-Cv2.3194
[6] = molecular target: SARS-CoV-2 RBD (B.1.351) domain (SARS-CoV-2); assay: RBD-ACE2 competition ELISA; design: unit not given beside the values
[7] = molecular target: SARS-CoV-2 RBD (P.1) domain (SARS-CoV-2); assay: RBD-ACE2 competition ELISA; design: unit not given beside the values
[8] = molecular target: SARS-CoV-2 RBD (B.1.1.7) domain (SARS-CoV-2); assay: RBD-ACE2 competition ELISA; design: unit not given beside the values
[9] = molecular target: SARS-CoV-2 RBD (B.1.351) domain (SARS-CoV-2); assay: ELISA; design: unit not given beside the values
[10] = molecular target: SARS-CoV-2 RBD (P.1) domain (SARS-CoV-2); assay: ELISA; design: unit not given beside the values; remark: listed apart in the source
[11] = molecular target: SARS-CoV-2 RBD (B.1.1.7) domain (SARS-CoV-2); assay: ELISA; design: unit not given beside the values; remark: listed apart in the source
[12] = molecular target: T1, SARS-CoV-2 Spike ectodomain (tri-S), …; assay: ELISA; design: unit not given beside the values
[13] = molecular target: SARS-CoV-2 RBD (B.1.351) domain (SARS-CoV-2); assay: competition ELISA, biotinylated RBD to immobilized ACE2 ectodomain
[14] = molecular target: SARS-CoV-2 RBD (P.1) domain (SARS-CoV-2); assay: as above
[15] = molecular target: SARS-CoV-2 RBD (B.1.1.7) domain (SARS-CoV-2); assay: as above
[16] = molecular target: T1, SARS-CoV-2 Spike ectodomain (tri-S), …; assay: competition ELISA, spike protein binding to ACE2 ectodomain
[17] = molecular target: T1, SARS-CoV-2 Spike ectodomain (tri-S), …; assay: ELISA, coated antigen
[18] = molecular target: T1, SARS-CoV-2 Spike ectodomain (tri-S), …; assay: tri-S capture ELISA
[19] = molecular target: T1, SARS-CoV-2 Spike ectodomain (tri-S), …; assay: competition ELISA vs bio-Cv2.1353
[20] = molecular target: SARS-CoV-2 RBD (B.1.351) domain (SARS-CoV-2); assay: RBD/ACE2 blocking ELISA
[21] = molecular target: SARS-CoV-2 RBD (P.1) domain (SARS-CoV-2); assay: RBD/ACE2 blocking ELISA
[22] = molecular target: SARS-CoV-2 RBD (B.1.1.7) domain (SARS-CoV-2); assay: RBD/ACE2 blocking ELISA
[23] = molecular target: SARS-CoV-2 RBD (B.1.351) domain (SARS-CoV-2); assay: ELISA
[24] = molecular target: SARS-CoV-2 RBD (P.1) domain (SARS-CoV-2); assay: ELISA
[25] = molecular target: SARS-CoV-2 RBD (B.1.1.7) domain (SARS-CoV-2); assay: ELISA
[26] = molecular target: T1, SARS-CoV-2 Spike ectodomain (tri-S), …; assay: ELISA
[27] = molecular target: T1, SARS-CoV-2 Spike ectodomain (tri-S), …; assay: competition ELISA vs bio-Cv2.5213
[28] = molecular target: T1, SARS-CoV-2 Spike ectodomain (tri-S), …; assay: biotinylated tri-S on immobilised ACE2, competition ELISA
[29] = molecular target: T1, SARS-CoV-2 Spike ectodomain (tri-S), …; assay: competition ELISA vs bio-Cv2.3235
[30] = molecular target: T1, SARS-CoV-2 Spike ectodomain (tri-S), …; assay: tri-S/ACE2 blocking ELISA [B]

B1: Cv2.3194 (recombinant human IgG1) (antibody)
heavy: EVQLVESGGGLIQPGGSLRLSCAASGITVTSNYMSWVRQAPGKGLEWVSVIYPGGSTFYADSVKGRFTISRDNSKNTLYLQMNSLRAEDTAVYYCARDLVVYGMDVWGQGTTVTVSSASTKGPSVFPLAPSSKSTSGGTAALGCLVKDYFPEPVTVSWNSGALTSGVHTFPAVLQSSGLYSLSSVVTVPSSSLGTQTYICNVNHKPSNTKVDKKVEPKSCDKTHTCPPCPAPELLGGPSVFLFPPKPKDTLMISRTPEVTCVVVDVSHEDPEVKFNWYVDGVEVHNAKTKPREEQYNSTYRVVSVLTVLHQDWLNGKEYKCKVSNKALPAPIEKTISKAKQPREPQVYTLPPSRDELTKNQVSLTCLVKGFYPSDIAVEWESNGQPENNYKTTPPVLDSDGSFFLYSKLTVDKSRWQQGNVFSCSVMHEALHNHYTQKSLSLSPGK
light: EIVLTQSPGTLSLSPGERATLSCRASQSVSSSYLAWYQQKPGQAPRLLIYGASSRATGIPGRFSGSGSGTDFTLTISRLEPEDFAIYYCQQGVTFGGGTKVEIKRTVAAPSVFIFPPSDEQLKSGTASVVCLLNNFYPREAKVQWKVDNALQSGNSQESVTEQDSKDSTYSLSSTLTLSKADYEKHKVYACEVTHQGLSSPVTKSFNRGEC
Question: What does the source list for B1?
Answer: IC50 [1]: 0.093 µg/mL; IC90 [1]: 0.212 µg/mL; AUC (RBD bind.) [2]: 13; AUC (RBD bind.) [3]: 13; Kd [4]: < 1 pM; % inhibition (competition) [5]: 86; AUC (RBD block.) [6]: 335; AUC (RBD block.) [7]: 279; AUC (RBD block.) [8]: 294; AUC [9]: 4; AUC [10]: 3; AUC [11]: 3; AUC [12]: 3; IC50 [13]: 0.206 µg/mL; IC90 [13]: 0.406 µg/mL; IC50 [14]: 0.412 µg/mL; IC90 [14]: 0.591 µg/mL; IC50 [15]: 0.212 µg/mL; IC90 [15]: 0.737 µg/mL; ACE2 Block (%) [16]: 91%; ELISA OD [17]: 3.6 OD; triS ELISA (AUC) [17]: 15.8 AUC; triS Capt-ELISA [18]: 2.3; % inhibition (competition) [19]: 82; % binding inhibition [20]: 95%; % binding inhibition [21]: 94%; % binding inhibition [22]: 97%; OD405nm [23]: 3.5; OD405nm [24]: 3.4; OD405nm [25]: 3.4; OD405nm [26]: 3.5; % inhibition (competition) [27]: 84; EC50 [28]: 0.31 µg/mL; % inhibition (competition) [29]: 97; AUC of blocking [30]: 181
